# From IntAct's records for PubMed 17704763
# B1: Adagio protein 1 (Arabidopsis thaliana (Mouse-ear cress)), Q94BT6 (parent)
# chain: MEWDSGSDLSADDASSLADDEEGGLFPGGGPIPYPVGNLLHTAPCGFVVTDAVEPDQPIIYVNTVFEMVTGYRAEEVLGGNCRFLQCRGPFAKRRHPLVDSMVVSEIRKCIDEGIEFQGELLNFRKDGSPLMNRLRLTPIYGDDDTITHIIGIQFFIETDIDLGPVLGSSTKEKSIDGIYSALAAGERNVSRGMCGLFQLSDEVVSMKILSRLTPRDVASVSSVCRRLYVLTKNEDLWRRVCQNAWGSETTRVLETVPGAKRLGWGRLARELTTLEAAAWRKLSVGGSVEPSRCNFSACAVGNRVVLFGGEGVNMQPMNDTFVLDLNSDYPEWQHVKVSSPPPGRWGHTLTCVNGSNLVVFGGCGQQGLLNDVFVLNLDAKPPTWREISGLAPPLPRSWHSSCTLDGTKLIVSGGCADSGVLLSDTFLLDLSIEKPVWREIPAAWTPPSRLGHTLSVYGGRKILMFGGLAKSGPLKFRSSDVFTMDLSEEEPCWRCVTGSGMPGAGNPGGVAPPPRLDHVAVNLPGGRILIFGGSVAGLHSASQLYLLDPTEDKPTWRILNIPGRPPRFAWGHGTCVVGGTRAIVLGGQTGEEWMLSELHELSLASYLT
# partner: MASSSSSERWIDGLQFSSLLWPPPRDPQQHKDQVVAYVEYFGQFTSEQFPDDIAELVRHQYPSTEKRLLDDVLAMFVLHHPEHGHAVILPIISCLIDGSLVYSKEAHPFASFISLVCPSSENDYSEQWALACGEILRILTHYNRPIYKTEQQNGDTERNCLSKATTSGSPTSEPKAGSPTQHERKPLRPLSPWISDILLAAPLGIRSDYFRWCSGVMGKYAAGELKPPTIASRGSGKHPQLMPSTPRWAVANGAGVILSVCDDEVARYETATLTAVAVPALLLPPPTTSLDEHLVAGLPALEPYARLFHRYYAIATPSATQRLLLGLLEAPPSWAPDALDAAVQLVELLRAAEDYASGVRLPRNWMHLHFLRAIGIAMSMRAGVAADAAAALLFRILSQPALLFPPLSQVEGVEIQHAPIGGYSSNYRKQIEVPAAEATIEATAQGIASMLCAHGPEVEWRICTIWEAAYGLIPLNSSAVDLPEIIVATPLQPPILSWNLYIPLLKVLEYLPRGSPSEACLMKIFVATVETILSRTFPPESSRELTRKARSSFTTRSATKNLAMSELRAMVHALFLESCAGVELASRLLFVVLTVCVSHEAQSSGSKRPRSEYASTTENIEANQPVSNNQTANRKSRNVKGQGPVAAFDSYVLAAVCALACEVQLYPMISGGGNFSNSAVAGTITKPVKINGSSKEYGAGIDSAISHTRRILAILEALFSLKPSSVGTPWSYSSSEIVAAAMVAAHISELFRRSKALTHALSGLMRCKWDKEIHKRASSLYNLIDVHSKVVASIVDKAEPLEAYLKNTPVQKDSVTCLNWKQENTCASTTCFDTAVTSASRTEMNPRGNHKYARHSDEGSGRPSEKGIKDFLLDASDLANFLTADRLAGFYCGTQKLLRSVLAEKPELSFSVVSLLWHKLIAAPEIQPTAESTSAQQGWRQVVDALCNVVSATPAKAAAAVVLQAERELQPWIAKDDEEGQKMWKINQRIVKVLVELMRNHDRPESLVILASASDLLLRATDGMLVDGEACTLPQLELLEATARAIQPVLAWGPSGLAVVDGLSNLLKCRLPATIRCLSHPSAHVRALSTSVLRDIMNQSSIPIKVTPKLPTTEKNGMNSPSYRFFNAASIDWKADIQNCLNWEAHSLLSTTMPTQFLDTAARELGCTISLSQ
# Variants of: B1
# Conditions: with gigan_arath GI
row,Variant,effect of a mutation on the interaction
1,G46E,disrupting interaction strength
2,G119D,decreasing interaction strength
3,C82A,decreasing interaction strength
